Here are results for seven molecules from patent publication US5856135, “Reshaped human antibody to human interleukin-6” (Chugai Seiyaku Kabushiki Kaisha, dated 1999).

In experiment [1] the target is T1, biotinylated IL-6 (human, UniProt P05231, biotinylated (site not stated)). In words: binding-inhibition ELISA, IL-6 to IL-6R (FIG. 10). As to the method: (§1) For binding-inhibition assay, an ELISA plate was prepared as follows. A 96-well plate was coated with mouse monoclonal antibody, MT-18 (Hirata, Y. et al., J. Immunol., 143, 2900–2907, 1989), specific to human IL-6 receptor (IL-6R), and, after blocking, soluble recombinant human IL-6R (SR344) (Yasukawa, K. et al., J. Biochem. 108, 673–676, 1990) was added thereto. A sample of this chimeric SK2 antibody was sequentially diluted, and added with biotinylated IL-6 to each well, and after adding an alkaline phosphatase-conjugated streptavidin thereto, absorbance at 405 nm was measured.
(In an ELISA, binding on a coated surface is turned into a signal by an enzyme label.)

For experiment [2], the target named is T2, recombinant human IL-6 (human, UniProt P05231). In words: antigen-binding ELISA (FIG. 9). The method, then:
(§2) An ELISA plate for antigen-binding assay was prepared as follows. A 96-well plate was coated with mouse monoclonal antibody MH166 recognizing a different epitope of human IL-6 from that recognized by SK2 (Matsuda, T. et al., Eur. J. Immunol. 18, 951–956, 1988), and after blocking, recombinant human IL-6 was added thereto. A sample of the chimeric SK2 antibody was sequentially diluted, added to each well, and then an alkaline phosphatase-conjugated goat anti-human IgG antibody (Sigma) was added thereto. After incubation and washing, substrate was added, and absorbance at 405 nm was measured.

In experiment [3] the target is T2, recombinant human IL-6. In words: ELISA, told in the description of the chimeric antibody. The method, then: as §2
The target in experiment [4] is T1, biotinylated IL-6. In words: binding-inhibition ELISA, IL-6 to IL-6R (FIG. 10), reference. The method, then:
as §1

Experiment [5] deals with T2, recombinant human IL-6. In words: antigen-binding ELISA (FIG. 8). The method, then:
as §2

B1: reshaped human SK2 antibody, L chain version "a" and H chain version "a" (antibody, V domains shown)
VH: QVTLRESGPALVRPTQTLTLTCTFSGFSLSTSGMTVGWIRQPPGEALEWLAHIWWNDDKYYNPALKGRLAVSKDTSKNQVVLSMNTVGPGDTATYYCARMEDYDEAMDYWGQGILVTVSS
VL: DIQMTQSPSSLSASVGDRVTITCRASENIYSNLAWYQQKPGKAPKLLIYAATYLADGVPSRFSGSGSGTDFTFTISSLQPEDIATYYCQHFWGTPPFGQGTKVEIK
Regarding B1, the binding result in the experiment with biotinylated IL-6 [1] and in the experiment with recombinant human IL-6 [2] was “binds” throughout.

B2: reshaped human SK2 antibody, L chain version "b" and H chain version "b" (antibody, V domains shown)
VH: QVTLRESGPALVRPTQTLTLTCTFSGFSLNTSGMTVGWIRQPPGEALEWLAHIWWNDDKYYNPALKGRLAVSKDTSKNQVVLSMNTVGPGDTATYYCARMEDYDEAMDYWGQGILVTVSS
VL: DIQMTQSPSSLSASVGDRVTITCRASENIYSNLAWYQQKPGKAPKLLIYAATYLADGVPSRFSGSGSGTDYTFTISSLQPEDIATYYCQHFWGTPPFGQGTKVEIK
With B2, in the experiment with recombinant human IL-6 [2], the binding result was “binds”.

B3: reshaped human SK2 antibody, L chain version "a" and H chain version "b" (antibody, V domains shown)
VH: QVTLRESGPALVRPTQTLTLTCTFSGFSLNTSGMTVGWIRQPPGEALEWLAHIWWNDDKYYNPALKGRLAVSKDTSKNQVVLSMNTVGPGDTATYYCARMEDYDEAMDYWGQGILVTVSS
VL: DIQMTQSPSSLSASVGDRVTITCRASENIYSNLAWYQQKPGKAPKLLIYAATYLADGVPSRFSGSGSGTDFTFTISSLQPEDIATYYCQHFWGTPPFGQGTKVEIK
In the case of B3, the binding result in the experiment with biotinylated IL-6 [1] and in the experiment with recombinant human IL-6 [2] was “binds” in each case.

B4: reshaped human SK2 antibody, L chain version "b" and H chain version "a" (antibody, V domains shown)
VH: QVTLRESGPALVRPTQTLTLTCTFSGFSLSTSGMTVGWIRQPPGEALEWLAHIWWNDDKYYNPALKGRLAVSKDTSKNQVVLSMNTVGPGDTATYYCARMEDYDEAMDYWGQGILVTVSS
VL: DIQMTQSPSSLSASVGDRVTITCRASENIYSNLAWYQQKPGKAPKLLIYAATYLADGVPSRFSGSGSGTDYTFTISSLQPEDIATYYCQHFWGTPPFGQGTKVEIK
As for B4, the binding result with biotinylated IL-6 [1] and with recombinant human IL-6 [2] was “binds” throughout.

B5: chimeric SK2 antibody (antibody, V domains shown)
VH: QVTLKESGPGILQPSQTLSLTCSFSGFSLNTSGMTVGWIRQPSGKGLEWLAHIWWNDDKYYNPALKGRLTISKDTSNNQVFLKIASVVTADTATYYCARMEDYDEAMDYWGQGTSVTVSS
VL: DIQMTQSPASLSVSVGETVTITCRASENIYSNLAWYQQKQGKSPQLLVYAATYLADGVPSRFSGSGSGTQYSLKINSLQSEDFGSYYCQHFWGTPPFGSGTKLEIK
In the case of B5, the binding result with recombinant human IL-6 [3] and with biotinylated IL-6 [4] was “binds” each time.

B6: antibody comprising reshaped L chain version "a" and chimeric H chain (antibody, V domains shown)
VH: QVTLKESGPGILQPSQTLSLTCSFSGFSLNTSGMTVGWIRQPSGKGLEWLAHIWWNDDKYYNPALKGRLTISKDTSNNQVFLKIASVVTADTATYYCARMEDYDEAMDYWGQGTSVTVSS
VL: DIQMTQSPSSLSASVGDRVTITCRASENIYSNLAWYQQKPGKAPKLLIYAATYLADGVPSRFSGSGSGTDFTFTISSLQPEDIATYYCQHFWGTPPFGQGTKVEIK
B6: the binding result with recombinant human IL-6 [5] is listed as “binds”.

B7: antibody comprising reshaped L chain version "b" and chimeric H chain (antibody, V domains shown)
VH: QVTLKESGPGILQPSQTLSLTCSFSGFSLNTSGMTVGWIRQPSGKGLEWLAHIWWNDDKYYNPALKGRLTISKDTSNNQVFLKIASVVTADTATYYCARMEDYDEAMDYWGQGTSVTVSS
VL: DIQMTQSPSSLSASVGDRVTITCRASENIYSNLAWYQQKPGKAPKLLIYAATYLADGVPSRFSGSGSGTDYTFTISSLQPEDIATYYCQHFWGTPPFGQGTKVEIK
As for B7, the binding result in the experiment with recombinant human IL-6 [5] is recorded as “binds”.
